Data: US20020119494A1 (Boehringer Ingelheim, published 2002)
No end group written: not given here.

Assays:
Test in all cases: cell-based or functional assay
[1] = target: T1, FPRL-1 (formyl peptide receptor like-1) receptor (human, UniProt P25090 1-351)
T1 sequence: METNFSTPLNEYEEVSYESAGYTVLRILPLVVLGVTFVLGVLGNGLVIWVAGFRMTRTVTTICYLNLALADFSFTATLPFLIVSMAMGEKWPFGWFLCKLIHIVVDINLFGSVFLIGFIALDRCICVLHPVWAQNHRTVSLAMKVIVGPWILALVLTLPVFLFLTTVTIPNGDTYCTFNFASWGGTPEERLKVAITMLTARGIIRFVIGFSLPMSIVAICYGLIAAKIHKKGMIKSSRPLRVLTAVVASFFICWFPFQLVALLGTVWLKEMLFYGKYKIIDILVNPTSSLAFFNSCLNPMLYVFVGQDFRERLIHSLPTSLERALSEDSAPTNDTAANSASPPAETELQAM

[2] = target: T1, FPRL-1 (formyl peptide receptor like-1) …; remark: listed apart in the source
[3] = target: T1, FPRL-1 (formyl peptide receptor like-1) …; remark: listed apart in the source
[4] = target: T1, FPRL-1 (formyl peptide receptor like-1) …; remark: listed apart in the source

- Expression of MMP-12 in MonoMac 6 cells, fold induction at 3 h, W-peptide (1 µM) [1]: 1.51 fold induction
- Expression of IL-8 in MonoMac 6 cells, fold induction at 3 h, W-peptide (1 µM) [2]: 1.54 fold induction
- Expression of TNFα in MonoMac 6 cells, fold induction at 3 h, W-peptide (1 µM) [3]: 1.03 fold induction
- Migration Index of MonoMac6 cells, W-peptide (10 nM) [4]: 0.95 migration index (fold over control medium)
- Migration Index of MonoMac6 cells, W-peptide (100 nM) [4]: 1.23 migration index (fold over control medium)
- Migration Index of MonoMac6 cells, W-peptide (1 µM) [4]: 2.46 migration index (fold over control medium)
Binder: WKYMVM (not fully specified (residue 6)) [W-peptide]
